Data: paper PMC5524369

Columns and labels:
C1q (Homo sapiens) = C1q (Homo sapiens) (UniProt P02745); settings: cited from earlier work
[1] = molecular target: complement factor H (Homo sapiens) (UniProt P08603); experiment: SPR; settings: cited from earlier work
[2] = molecular target: Tamm-Horsfall protein (human) (UniProt P07911); experiment: ELISA; wells coated with 25 μg/ml THP; CFH 10 to 250 μg/ml in 1% BSA/20 mM Tris/20 mM NaCl/0.05% Tween 20 (pH 7.5), overnight, 4°C; detected with goat anti-human CFH; fitted to B = (F × Cap)/(KD + F)
[3] = molecular target: Tamm-Horsfall protein (human) (UniProt P07911); experiment: as above; remark: listed apart in the source
[4] = molecular target: Tamm-Horsfall protein (human) (UniProt P07911); experiment: ELISA; wells coated with 25 μg/ml THP; C3b 1 to 250 μg/ml in 20 mM Tris/20 mM NaCl/0.05% Tween 20 (pH 7.5) without BSA, overnight, 4°C; detected with goat anti-human C3b; fitted to B = (F × Cap)/(KD + F)

complement factor H, sequence (P08603 19-1231): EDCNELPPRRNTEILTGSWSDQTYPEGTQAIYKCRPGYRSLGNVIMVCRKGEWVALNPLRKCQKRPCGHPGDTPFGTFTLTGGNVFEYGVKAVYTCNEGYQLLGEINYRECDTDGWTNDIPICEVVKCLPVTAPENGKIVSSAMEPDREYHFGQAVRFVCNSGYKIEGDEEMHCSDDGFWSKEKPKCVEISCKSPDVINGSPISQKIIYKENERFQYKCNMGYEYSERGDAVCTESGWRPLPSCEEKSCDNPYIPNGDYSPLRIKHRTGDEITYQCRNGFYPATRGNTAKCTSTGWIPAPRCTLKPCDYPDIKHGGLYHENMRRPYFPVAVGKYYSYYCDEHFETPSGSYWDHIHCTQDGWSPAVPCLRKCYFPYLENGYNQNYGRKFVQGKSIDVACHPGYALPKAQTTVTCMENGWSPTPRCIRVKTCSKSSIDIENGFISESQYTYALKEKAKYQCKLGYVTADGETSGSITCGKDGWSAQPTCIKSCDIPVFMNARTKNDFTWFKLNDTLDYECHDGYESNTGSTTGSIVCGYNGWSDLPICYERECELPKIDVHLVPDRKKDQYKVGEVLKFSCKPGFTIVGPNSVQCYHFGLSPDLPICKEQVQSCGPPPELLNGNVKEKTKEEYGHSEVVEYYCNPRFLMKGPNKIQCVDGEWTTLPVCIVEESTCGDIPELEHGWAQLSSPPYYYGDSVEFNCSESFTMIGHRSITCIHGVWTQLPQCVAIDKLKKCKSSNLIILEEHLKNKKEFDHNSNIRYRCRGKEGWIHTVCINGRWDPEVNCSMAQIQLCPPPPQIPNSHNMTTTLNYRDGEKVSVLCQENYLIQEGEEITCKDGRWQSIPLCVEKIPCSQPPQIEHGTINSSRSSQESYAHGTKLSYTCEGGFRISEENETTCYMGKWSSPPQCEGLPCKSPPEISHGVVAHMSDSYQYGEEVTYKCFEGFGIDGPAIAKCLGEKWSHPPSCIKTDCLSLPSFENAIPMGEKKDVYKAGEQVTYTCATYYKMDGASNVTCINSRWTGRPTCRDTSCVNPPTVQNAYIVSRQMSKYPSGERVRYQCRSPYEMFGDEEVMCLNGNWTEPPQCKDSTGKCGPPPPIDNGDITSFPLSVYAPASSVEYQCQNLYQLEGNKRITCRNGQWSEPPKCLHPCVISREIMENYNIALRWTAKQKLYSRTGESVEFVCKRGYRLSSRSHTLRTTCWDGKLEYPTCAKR
complement factor H (Homo sapiens), sequence (P08603 19-1231): as above
C1q (Homo sapiens), sequence (P02745 23-245, chain 1 of 3): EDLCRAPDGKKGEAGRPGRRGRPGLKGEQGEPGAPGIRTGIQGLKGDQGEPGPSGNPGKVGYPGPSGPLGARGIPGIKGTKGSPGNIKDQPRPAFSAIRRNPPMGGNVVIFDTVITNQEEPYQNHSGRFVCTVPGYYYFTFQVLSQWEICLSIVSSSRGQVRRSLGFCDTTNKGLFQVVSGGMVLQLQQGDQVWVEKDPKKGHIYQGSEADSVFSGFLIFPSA
C1q (Homo sapiens), sequence (P02746 28-253, chain 2 of 3, further chain): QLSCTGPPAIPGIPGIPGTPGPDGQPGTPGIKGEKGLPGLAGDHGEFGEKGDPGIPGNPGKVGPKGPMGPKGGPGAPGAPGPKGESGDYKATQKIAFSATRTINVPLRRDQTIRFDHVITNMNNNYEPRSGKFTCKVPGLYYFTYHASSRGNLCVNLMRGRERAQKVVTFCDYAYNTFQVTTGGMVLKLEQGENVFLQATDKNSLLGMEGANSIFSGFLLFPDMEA
C1q (Homo sapiens), sequence (P02747 29-245, chain 3 of 3, further chain): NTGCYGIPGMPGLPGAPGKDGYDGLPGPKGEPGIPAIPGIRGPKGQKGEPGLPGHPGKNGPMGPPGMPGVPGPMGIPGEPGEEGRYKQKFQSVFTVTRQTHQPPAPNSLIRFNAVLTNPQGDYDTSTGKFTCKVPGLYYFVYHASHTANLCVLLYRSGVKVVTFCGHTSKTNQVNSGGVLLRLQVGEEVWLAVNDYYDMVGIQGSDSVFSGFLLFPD

Substance: THP (uromodulin) (from UniProt P07911)
- Kd (C1q (Homo sapiens)): 1 nM
- Kd [1]: 4000 nM

Substance: complement factor H (from UniProt P08603 19-1231) (natural protein)
- Kd [2]: 1200 nM
- Kd [3]: 1000 nM

Substance: complement 3b (from UniProt P01024 749-1663; P01024 749-1663) (natural protein)
- Kd [4]: 50 nM
